Assay results as given in IntAct's records for PubMed 29178645.

B1: Protein SHQ1 homolog (Homo sapiens), Q6PI26 (parent)
chain: MLTPAFDLSQDPDFLTIAIRVPYARVSEFDVYFEGSDFKFYAKPYFLRLTLPGRIVENGSEQGSYDADKGIFTIRLPKETPGQHFEGLNMLTALLAPRKSRTAKPLVEEIGASEIPEEVVDDEEFDWEIEQTPCEEVSESALNPQCHYGFGNLRSGVLQRLQDELSDVIDIKDPDFTPAAERRQKRLAAELAKFDPDHYLADFFEDEAIEQILKYNPWWTDKYSKMMAFLEKSQEQENHATLVSFSEEEKYQLRKFVNKSYLLDKRACRQVCYSLIDILLAYCYETRVTEGEKNVESAWNIRKLSPTLCWFETWTNVHDIMVSFGRRVLCYPLYRHFKLVMKAYRDTIKILQLGKSAVLKCLLDIHKIFQENDPAYILNDLYISDYCVWIQKVKSKKLAALAEALKEVSLTKAQLGLELEELEAAALLVQEEETALKAAHSVSGQQTLCSSSEASDSEDSDSSVSSGNEDSGSDSEQDELKDSPSETVSSLQGPFLEESSAFLIVDGGVRRNTAIQESDASQGKPLASSWPLGVSGPLIEELGEQLKTTVQVSEPKGTTAVNRSNIQERDGCQTPNN
partner: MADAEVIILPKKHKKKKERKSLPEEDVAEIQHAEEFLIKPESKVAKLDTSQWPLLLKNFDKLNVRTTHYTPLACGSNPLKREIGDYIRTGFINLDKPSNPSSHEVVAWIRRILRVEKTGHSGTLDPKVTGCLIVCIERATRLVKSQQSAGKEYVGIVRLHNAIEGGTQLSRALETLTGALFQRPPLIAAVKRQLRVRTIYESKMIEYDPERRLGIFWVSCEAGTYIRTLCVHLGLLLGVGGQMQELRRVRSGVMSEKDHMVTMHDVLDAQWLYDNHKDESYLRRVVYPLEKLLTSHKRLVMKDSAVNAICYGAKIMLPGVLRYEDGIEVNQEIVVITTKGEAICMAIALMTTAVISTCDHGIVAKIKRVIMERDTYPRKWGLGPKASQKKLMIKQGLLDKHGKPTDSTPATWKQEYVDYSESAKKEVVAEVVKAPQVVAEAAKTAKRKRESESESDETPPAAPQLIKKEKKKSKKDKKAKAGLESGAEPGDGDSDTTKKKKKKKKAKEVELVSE

Variants of: B1
Details: with dkc1_human DKC1, O60832

Effect of a mutation on the interaction, decreasing interaction strength:
R335C;A426V
R335C
A426V
